These results are taken from patent US7138236.

The data set concerns p53, unphosphorylated (recombinant full-length).

For the substance “ATM (A-T mutated) protein purified from HeLa cell nuclear extract”, the “in vitro kinase assay (32P incorporation, autoradiography)” value is given as “several independently purified ATM preparations were consistently found to phosphorylate p53 with high efficiency”; the “phosphorylation site mapping (tryptic/Asp-N peptides, Edman degradation)” value was “the sites of phosphorylation correspond to p53 residues Ser-15 and Thr-18”.

With “ATR (FRP-1) purified from HeLa nuclear extract”, the “kinase assay of chromatographic fractions, Western blot with p53 Ser15-specific antibodies” value is “this residue is also phosphorylated by a kinase activity associated with ATR”.
